# Assay results: PMC3439888 (Nucleic Acids Research, 2012)
# B1: Lac repressor (natural protein)
# chain: MKPVTLYDVAEYAGVSYQTVSRVVNQASHVSAKTREKVEAAMAELNYIPNRVAQQLAGKQSLLIGVATSSLALHAPSQIVAAIKSRADQLGASVVVSMVERSGVEACKAAVHNLLAQRVSGLIINYPLDDQDAIAVEAACTNVPALFLDVSDQTPINSIIFSHEDGTRLGVEHLVALGHQQIALLAGPLSSVSARLRLAGWHKYLTRNQIQPIAEREGDWSAMSGFQQTMQMLNEGIVPTAMLVANDQMALGAMRAITESGLRVGADISVVGYDDTEDSSCYIPPLTTIKQDFRLLGQTSVDRLLQLSQGQAVKGNQLLPVSLVKRKTTLAPNTQTASPRALADSLMQLARQVSRLESGQ
# Biological target: the molecule itself
# Assay: SEC
protein,measurement,value
B1,stoichiometry N,4
